Assays:
[1] = tested on: GST-NR2F6 fusion protein, wild-type, full-length (purified recombinant)
[2] = tested on: GST-NR2F6 fusion protein, S83A mutant, full-length
[3] = tested on: GST-NR2F6 fusion protein, S89A mutant, full-length
Chain of GST-NR2F6 fusion protein, S89A mutant, full-length (chain, as listed by the source S89A): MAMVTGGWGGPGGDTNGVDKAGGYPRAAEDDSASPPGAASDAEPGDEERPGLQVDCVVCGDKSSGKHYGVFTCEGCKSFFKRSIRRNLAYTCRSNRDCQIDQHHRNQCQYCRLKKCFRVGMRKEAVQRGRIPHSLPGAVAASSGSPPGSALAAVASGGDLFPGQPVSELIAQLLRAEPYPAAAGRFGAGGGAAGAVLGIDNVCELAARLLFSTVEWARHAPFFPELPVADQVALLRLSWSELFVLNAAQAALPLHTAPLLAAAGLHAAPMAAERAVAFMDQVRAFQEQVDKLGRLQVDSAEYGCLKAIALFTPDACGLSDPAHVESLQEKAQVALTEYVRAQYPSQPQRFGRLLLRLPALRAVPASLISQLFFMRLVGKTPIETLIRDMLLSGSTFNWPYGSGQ

Chain of GST-NR2F6 fusion protein, S83A mutant, full-length (chain, as listed by the source S83A): as the sequence (chain, as listed by the source S89A) above, with S83A, A89S counted along it
Chain of GST-NR2F6 fusion protein, wild-type, full-length (purified recombinant) (chain, as listed by the source): as the sequence (chain, as listed by the source S89A) above, with A89S counted along it
Chain of recombinant PKCtheta (Q04759 whole entry): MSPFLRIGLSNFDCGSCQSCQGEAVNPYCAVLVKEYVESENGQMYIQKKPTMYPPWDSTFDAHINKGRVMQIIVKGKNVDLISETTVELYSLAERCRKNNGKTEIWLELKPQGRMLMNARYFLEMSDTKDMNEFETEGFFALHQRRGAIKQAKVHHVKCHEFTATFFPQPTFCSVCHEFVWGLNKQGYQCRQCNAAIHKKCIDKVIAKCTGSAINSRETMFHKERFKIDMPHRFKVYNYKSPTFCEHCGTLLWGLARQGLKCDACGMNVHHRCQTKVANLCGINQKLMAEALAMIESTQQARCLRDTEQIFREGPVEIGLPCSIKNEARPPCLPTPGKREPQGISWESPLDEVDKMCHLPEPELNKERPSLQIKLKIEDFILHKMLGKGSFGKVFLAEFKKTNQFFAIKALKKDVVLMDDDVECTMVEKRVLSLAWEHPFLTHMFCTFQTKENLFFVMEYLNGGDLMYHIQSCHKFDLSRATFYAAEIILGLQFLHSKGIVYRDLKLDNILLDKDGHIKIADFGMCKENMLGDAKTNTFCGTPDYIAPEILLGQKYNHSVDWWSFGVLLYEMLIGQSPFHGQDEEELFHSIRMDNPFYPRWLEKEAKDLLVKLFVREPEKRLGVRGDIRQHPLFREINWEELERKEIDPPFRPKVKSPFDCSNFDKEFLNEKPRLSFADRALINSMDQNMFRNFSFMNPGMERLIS

| Substance | in vitro protein kinase assay (32P incorporation into GST-NR2F6) [1] | in vitro protein kinase assay (32P incorporation into GST-NR2F6) [2] | in vitro protein kinase assay (32P incorporation into GST-NR2F6) [3] |
| --- | --- | --- | --- |
| Protein kinase A (PKA) | (but not PKCzeta or PKA) were able to phosphorylate recombinant NR2F6 in vitro | – | – |
| recombinant PKCtheta | PKCalpha, delta and theta (but not PKCzeta or PKA) were able to phosphorylate recombinant NR2F6 in vitro | This phosphorylation was lost after the predicted phosphorylation site at Ser-83 (but not at Ser-89) was mutated in the full-length NR2F6 protein | This phosphorylation was lost after the predicted phosphorylation site at Ser-83 (but not at Ser-89) was mutated in the full-length NR2F6 protein |
| recombinant PKCalpha | PKCalpha, delta and theta (but not PKCzeta or PKA) were able to phosphorylate recombinant NR2F6 in vitro | This phosphorylation was lost after the predicted phosphorylation site at Ser-83 (but not at Ser-89) was mutated in the full-length NR2F6 protein | This phosphorylation was lost after the predicted phosphorylation site at Ser-83 (but not at Ser-89) was mutated in the full-length NR2F6 protein |
| recombinant PKCdelta | PKCalpha, delta and theta (but not PKCzeta or PKA) were able to phosphorylate recombinant NR2F6 in vitro | This phosphorylation was lost after the predicted phosphorylation site at Ser-83 (but not at Ser-89) was mutated in the full-length NR2F6 protein | This phosphorylation was lost after the predicted phosphorylation site at Ser-83 (but not at Ser-89) was mutated in the full-length NR2F6 protein |
